{"source": "paper PMC2217137", "biological_target": "rabbit skeletal muscle Ca2+ release channel (ryanodine receptor), purified 30 S complex (rabbit) (UniProt P11716)", "experiment": "single-channel recording in planar lipid bilayers", "note": "pKd: −log10 of the molar value."}
{"substance": "imperatoxin activator (IpTxa), synthetic (from UniProt P59868 1-33) (peptide)", "values": [{"measurement": "K m (of P substate against [IpTxa])", "value": 2, "unit": "nM"}]}
{"substance": "imperatoxin activator (IpTxa), native, purified from Pandinus imperator venom (from UniProt P59868 1-33) (peptide)", "values": [{"measurement": "pKd", "value": 7.74}, {"measurement": "time constant of dwell times in the burst (toxin-free) state at 100 nM IpTxa", "value": 965, "unit": "ms"}, {"measurement": "time constant of dwell times in the subconductance (toxin-bound) state", "value": 3380, "unit": "ms"}]}
